Test [1] deals with recombinant lectin domain of FimH with FLAG tag (rFimHLD-FLAG), P08191. Put plainly: western blot quantification of rFimHLD-FLAG bound to rPPAP-HA. As to conditions: chain shown with the change; n = 3 biological replicates; parent: est. 1.0; read off a plot.
Test [2] has as its target full-length FimH adhesin on live WT UPEC UTI89 bacteria, P08191. Put plainly: binding array (rPPAP bound to glass slide, incubated with live bacteria). Particulars: chain shown with the change, n = 3 biological replicates.

recombinant lectin domain of FimH with FLAG tag (rFimHLD-FLAG), P08191, sequence (P08191 22-156): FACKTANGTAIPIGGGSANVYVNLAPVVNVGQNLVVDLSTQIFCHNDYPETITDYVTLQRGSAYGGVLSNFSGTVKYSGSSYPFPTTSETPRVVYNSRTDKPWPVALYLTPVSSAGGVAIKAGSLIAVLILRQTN
full-length FimH adhesin on live WT UPEC UTI89 bacteria, P08191, sequence (P08191 22-300): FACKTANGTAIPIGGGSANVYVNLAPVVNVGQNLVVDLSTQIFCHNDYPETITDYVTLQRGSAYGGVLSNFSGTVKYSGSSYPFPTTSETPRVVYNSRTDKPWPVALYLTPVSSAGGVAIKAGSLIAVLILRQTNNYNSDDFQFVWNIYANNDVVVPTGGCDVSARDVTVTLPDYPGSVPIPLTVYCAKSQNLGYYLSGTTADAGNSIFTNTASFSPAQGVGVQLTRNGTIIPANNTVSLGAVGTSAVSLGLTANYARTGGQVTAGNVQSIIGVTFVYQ

B1: HA-tagged PPAP recombinant protein, isoform 2 (membrane protein), wild type (rPPAP-HA WT), P15309-2 N94A; N220A; N333A (protein)
chain: KELKFVTLVFRHGDRSPIDTFPTDPIKESSWPQGFGQLTQLGMEQHYELGEYIRKRYRKFLAESYKHEQVYIRSTDVDRTLMSAMTNLAALFPPEGVSIWNPILLWQPIPVHTVPLSEDQLLYLPFRNCPRFQELESETLKSEEFQKRLHPYKDFIATLGKLSGLHGQDLFGIWSKVYDPLYCESVHAFTLPSWATEDTMTKLRELSELSLLSLYGIHKQKEKSRLQGGVLVNEILNHMKRATQIPSYKKLIMYSAHDTTVSGLQMALDVYNGLLPPYASCHLTELYFEKGEYFVEMYYRAETQHEPYPLMLPGCSPSCPLERFAELVGPVIPQDWSTECMTTNSHQVLKVIFAVAFCLISAVLMVLLFIHIRRGLCWQRESYGNI
As to B1, in test [1], the ratio to parent turned out to be 0.36. Besides, the response (bacteria per field) in test [2] (with D-mannose, parent: est. 18, read off a plot) is 13; in test [2] (without D-mannose, parent: est. 66, read off a plot) it was 19.

B2: HA-tagged PPAP recombinant protein, isoform 2 (membrane protein), wild type (rPPAP-HA WT), P15309-2 N333A (protein)
chain: KELKFVTLVFRHGDRSPIDTFPTDPIKESSWPQGFGQLTQLGMEQHYELGEYIRKRYRKFLNESYKHEQVYIRSTDVDRTLMSAMTNLAALFPPEGVSIWNPILLWQPIPVHTVPLSEDQLLYLPFRNCPRFQELESETLKSEEFQKRLHPYKDFIATLGKLSGLHGQDLFGIWSKVYDPLYCESVHNFTLPSWATEDTMTKLRELSELSLLSLYGIHKQKEKSRLQGGVLVNEILNHMKRATQIPSYKKLIMYSAHDTTVSGLQMALDVYNGLLPPYASCHLTELYFEKGEYFVEMYYRAETQHEPYPLMLPGCSPSCPLERFAELVGPVIPQDWSTECMTTNSHQVLKVIFAVAFCLISAVLMVLLFIHIRRGLCWQRESYGNI
As to B2, in test [1], the ratio to parent came to 0.6.

B3: HA-tagged PPAP recombinant protein, isoform 2 (membrane protein), wild type (rPPAP-HA WT), P15309-2 N220A (protein)
chain: KELKFVTLVFRHGDRSPIDTFPTDPIKESSWPQGFGQLTQLGMEQHYELGEYIRKRYRKFLNESYKHEQVYIRSTDVDRTLMSAMTNLAALFPPEGVSIWNPILLWQPIPVHTVPLSEDQLLYLPFRNCPRFQELESETLKSEEFQKRLHPYKDFIATLGKLSGLHGQDLFGIWSKVYDPLYCESVHAFTLPSWATEDTMTKLRELSELSLLSLYGIHKQKEKSRLQGGVLVNEILNHMKRATQIPSYKKLIMYSAHDTTVSGLQMALDVYNGLLPPYASCHLTELYFEKGEYFVEMYYRNETQHEPYPLMLPGCSPSCPLERFAELVGPVIPQDWSTECMTTNSHQVLKVIFAVAFCLISAVLMVLLFIHIRRGLCWQRESYGNI
Consider B3, for which, in test [1], the ratio to parent stood at 0.68.

B4: HA-tagged PPAP recombinant protein, isoform 2 (membrane protein), wild type (rPPAP-HA WT), P15309-2 N220A; N333A (protein)
chain: KELKFVTLVFRHGDRSPIDTFPTDPIKESSWPQGFGQLTQLGMEQHYELGEYIRKRYRKFLNESYKHEQVYIRSTDVDRTLMSAMTNLAALFPPEGVSIWNPILLWQPIPVHTVPLSEDQLLYLPFRNCPRFQELESETLKSEEFQKRLHPYKDFIATLGKLSGLHGQDLFGIWSKVYDPLYCESVHAFTLPSWATEDTMTKLRELSELSLLSLYGIHKQKEKSRLQGGVLVNEILNHMKRATQIPSYKKLIMYSAHDTTVSGLQMALDVYNGLLPPYASCHLTELYFEKGEYFVEMYYRAETQHEPYPLMLPGCSPSCPLERFAELVGPVIPQDWSTECMTTNSHQVLKVIFAVAFCLISAVLMVLLFIHIRRGLCWQRESYGNI
Regarding B4, in test [1], the ratio to parent worked out at 0.25.

B5: HA-tagged PPAP recombinant protein, isoform 2 (membrane protein), wild type (rPPAP-HA WT), P15309-2 N94A (protein)
chain: KELKFVTLVFRHGDRSPIDTFPTDPIKESSWPQGFGQLTQLGMEQHYELGEYIRKRYRKFLAESYKHEQVYIRSTDVDRTLMSAMTNLAALFPPEGVSIWNPILLWQPIPVHTVPLSEDQLLYLPFRNCPRFQELESETLKSEEFQKRLHPYKDFIATLGKLSGLHGQDLFGIWSKVYDPLYCESVHNFTLPSWATEDTMTKLRELSELSLLSLYGIHKQKEKSRLQGGVLVNEILNHMKRATQIPSYKKLIMYSAHDTTVSGLQMALDVYNGLLPPYASCHLTELYFEKGEYFVEMYYRNETQHEPYPLMLPGCSPSCPLERFAELVGPVIPQDWSTECMTTNSHQVLKVIFAVAFCLISAVLMVLLFIHIRRGLCWQRESYGNI
With B5, in test [1], the ratio to parent came to 0.78.

B6: HA-tagged PPAP recombinant protein, isoform 2 (membrane protein), wild type (rPPAP-HA WT), P15309-2 N94A; N333A (protein)
chain: MRAAPLLLARAASLSLGFLFLLFFWLDRSVLAKELKFVTLVFRHGDRSPIDTFPTDPIKESSWPQGFGQLTQLGMEQHYELGEYIRKRYRKFLAESYKHEQVYIRSTDVDRTLMSAMTNLAALFPPEGVSIWNPILLWQPIPVHTVPLSEDQLLYLPFRNCPRFQELESETLKSEEFQKRLHPYKDFIATLGKLSGLHGQDLFGIWSKVYDPLYCESVHNFTLPSWATEDTMTKLRELSELSLLSLYGIHKQKEKSRLQGGVLVNEILNHMKRATQIPSYKKLIMYSAHDTTVSGLQMALDVYNGLLPPYASCHLTELYFEKGEYFVEMYYRAETQHEPYPLMLPGCSPSCPLERFAELVGPVIPQDWSTECMTTNSHQGTEDSTD
For B6, the ratio to parent in test [1] worked out at 0.5.

B7: HA-tagged PPAP recombinant protein, isoform 2 (membrane protein), wild type (rPPAP-HA WT), P15309-2 N94A; N220A (protein)
chain: MRAAPLLLARAASLSLGFLFLLFFWLDRSVLAKELKFVTLVFRHGDRSPIDTFPTDPIKESSWPQGFGQLTQLGMEQHYELGEYIRKRYRKFLAESYKHEQVYIRSTDVDRTLMSAMTNLAALFPPEGVSIWNPILLWQPIPVHTVPLSEDQLLYLPFRNCPRFQELESETLKSEEFQKRLHPYKDFIATLGKLSGLHGQDLFGIWSKVYDPLYCESVHAFTLPSWATEDTMTKLRELSELSLLSLYGIHKQKEKSRLQGGVLVNEILNHMKRATQIPSYKKLIMYSAHDTTVSGLQMALDVYNGLLPPYASCHLTELYFEKGEYFVEMYYRNETQHEPYPLMLPGCSPSCPLERFAELVGPVIPQDWSTECMTTNSHQGTEDSTD
Take B7: the ratio to parent in test [1] turned out to be 0.53.

The values above are taken from article PMC12872464.
